The data set concerns the target T1, DHX36 (UniProt Q9H2U1 1-1008).
T1 sequence: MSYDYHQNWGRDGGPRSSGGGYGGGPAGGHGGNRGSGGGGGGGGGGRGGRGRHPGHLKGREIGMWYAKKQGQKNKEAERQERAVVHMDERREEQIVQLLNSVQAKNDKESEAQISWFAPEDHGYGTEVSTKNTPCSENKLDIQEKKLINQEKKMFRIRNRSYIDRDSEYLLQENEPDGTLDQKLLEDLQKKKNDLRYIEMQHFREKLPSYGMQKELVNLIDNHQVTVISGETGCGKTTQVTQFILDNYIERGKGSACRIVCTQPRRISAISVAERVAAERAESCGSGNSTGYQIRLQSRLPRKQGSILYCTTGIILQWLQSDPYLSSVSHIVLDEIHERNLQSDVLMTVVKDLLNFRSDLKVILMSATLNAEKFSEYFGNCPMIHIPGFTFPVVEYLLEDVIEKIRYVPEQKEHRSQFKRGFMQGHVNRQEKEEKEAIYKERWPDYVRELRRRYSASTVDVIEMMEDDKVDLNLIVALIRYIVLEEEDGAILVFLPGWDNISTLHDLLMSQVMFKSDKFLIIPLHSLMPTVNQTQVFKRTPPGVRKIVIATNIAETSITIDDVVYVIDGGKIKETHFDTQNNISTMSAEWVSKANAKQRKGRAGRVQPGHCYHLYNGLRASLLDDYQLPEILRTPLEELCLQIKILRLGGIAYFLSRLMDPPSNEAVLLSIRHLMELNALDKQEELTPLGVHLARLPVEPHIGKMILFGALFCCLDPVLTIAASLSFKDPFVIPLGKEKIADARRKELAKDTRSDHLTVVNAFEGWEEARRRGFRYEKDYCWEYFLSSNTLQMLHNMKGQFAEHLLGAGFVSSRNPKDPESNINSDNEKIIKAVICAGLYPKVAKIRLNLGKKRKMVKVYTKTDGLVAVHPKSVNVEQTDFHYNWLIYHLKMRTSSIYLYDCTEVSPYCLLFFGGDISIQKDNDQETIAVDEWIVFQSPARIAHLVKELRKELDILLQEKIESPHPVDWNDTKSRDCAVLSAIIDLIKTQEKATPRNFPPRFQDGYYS
Put plainly: EMSA; EMSA: 150 mM KCl, 1 mM MgCl2, 25 mM Tris-HCl pH 7.5, 8% sucrose, 30 min at 37 C; gel at 4 C. Pull-down: same buffer without sucrose, 4 C. To be noted: protein: commercial; label: 5' HEX; intramolecular rG4 with 3' single-stranded flank. Background: A gel shift assay detects complexes by their altered migration in electrophoresis.

As a reminder, the Kd is the concentration at which binding is half-saturated.

B1: HEX_APP rG4 wt region (structured_RNA)
RNA: GGGGCGGGUGGGGAGGGGUGCUCUGCUGGUCUUCAAUU
B1 gave a dissociation constant Kd of 51.3 ± 10.1 nM.

For the origin of these results see publication PMC11662670, “Selective recognition of RNA G-quadruplex in vitro and in cells by L-aptamer–D-oligonucleotide conjugate”.
